Drawing on paper PMC3369931, this text covers Kd and binding signal (fold weaker than ANTARcc) for 1 sequence.

Assay in all cases: EMSA
Data set [1] has as its system EutV ANTARcc (Enterococcus faecalis (V583?)). As to conditions: 10 mM Mg2+; 50 mM Hepes pH 7.5, 150 mM NaCl, 10 mM MgCl2, 2.5 ng/ul yeast tRNA, ~2 fmol RNA in 10 ul, 30 min at 25 C; EMSA on 5% native TBE gel, or DRaCALA on …. On the technique in general: A gel shift assay detects complexes by their altered migration in electrophoresis.
Data set [2] deals with EutV ANTAR (Enterococcus faecalis (V583?)). As to conditions: 10 mM Mg2+; 50 mM Hepes pH 7.5, 150 mM NaCl, 10 mM MgCl2, 2.5 ng/ul yeast tRNA, ~2 fmol RNA in 10 ul, 30 min at 25 C; EMSA on 5% native TBE gel, or DRaCALA on ….
The subject of data set [3] is EutV full length (Enterococcus faecalis (V583?)). The following applies: unphosphorylated; 10 mM Mg2+; 50 mM Hepes pH 7.5, 150 mM NaCl, 10 mM MgCl2, 2.5 ng/ul yeast tRNA, ~2 fmol RNA in 10 ul, 30 min at 25 C; EMSA on 5% native TBE gel, or DRaCALA on ….

The term Kd denotes the free concentration of one partner at which half of the binding sites on the other are occupied at equilibrium, for simple one-to-one binding. In the case of “GGGCAAAGAAUCAGAAACACAAUGGCGUGUUUUAACAAUCGGCAAAGGAGCCCAAGACUAAGUACGUG [eutP 5' leader dual hairpin RNA, wild type]”, the Kd in data set [1] amounted to 0.7 µM; in data set [3] it was 10 µM. Besides, the binding signal (fold weaker than ANTARcc) in data set [2] was 100.
